Test results from article PMC6035275, “Structures of DNA-bound human ligase IV catalytic core reveal insights into substrate binding and catalysis”.

T1: DNA ligase IV catalytic domain (lysyl-AMP at K273 in open complex) (human, UniProt P49917 1-620)
T1 sequence: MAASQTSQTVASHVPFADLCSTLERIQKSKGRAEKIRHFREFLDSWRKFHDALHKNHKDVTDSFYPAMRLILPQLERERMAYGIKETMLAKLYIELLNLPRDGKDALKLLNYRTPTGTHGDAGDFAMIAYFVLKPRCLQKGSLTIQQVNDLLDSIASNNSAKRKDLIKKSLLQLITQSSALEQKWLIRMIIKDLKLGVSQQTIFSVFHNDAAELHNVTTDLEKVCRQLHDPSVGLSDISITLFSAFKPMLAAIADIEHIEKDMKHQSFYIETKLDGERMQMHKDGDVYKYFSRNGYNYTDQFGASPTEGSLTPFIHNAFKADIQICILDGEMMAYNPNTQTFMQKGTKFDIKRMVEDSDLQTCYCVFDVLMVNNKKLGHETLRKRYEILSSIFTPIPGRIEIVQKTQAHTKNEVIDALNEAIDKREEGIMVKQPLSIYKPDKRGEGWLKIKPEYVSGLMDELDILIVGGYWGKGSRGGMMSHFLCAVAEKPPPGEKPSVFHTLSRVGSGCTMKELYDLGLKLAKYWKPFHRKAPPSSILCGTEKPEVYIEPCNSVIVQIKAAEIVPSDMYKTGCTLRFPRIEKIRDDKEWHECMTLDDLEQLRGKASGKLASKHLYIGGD

B1: nicked DNA duplex (crystal), 5'-phosphate downstream primer (dsDNA)
DNA 1: GTCCGACGACGCATCAGC
DNA 2: GCTGATGCGTC
DNA 3: GTCGGAC
modifications: upstream primer 3'-dideoxycytidine; downstream primer 5'-phosphate
B2: nicked DNA-adenylate duplex (crystal), 5'-AMP downstream primer (dsDNA)
DNA 1: GTCCGACGACGCATCAGC
DNA 2: GCTGATGCGTC
DNA 3: GTCGGAC
modifications: upstream primer 3'-dideoxycytidine; downstream primer 5'-adenylated (AMP-p, transferred from K273 in the complex)

Columns and labels:
[1] = molecular target: T1, DNA ligase IV catalytic domain …; experiment: X-ray crystallography; lysyl-AMP (K273), open conformation, 10 mM MgCl2; 3.25 A; Crystals: protein pre-incubated with 4 mM MgCl2, 1 mM ATP, 1 h on ice, DNA added at 2:1 molar ratio, 1 h on ice; HEPES pH 7.5 (77-79 mM), ~7.8% isopropanol, ~15.5% PEG4000, ~13.6% glycerol, +/- 10 mM MgCl2, room temperature. Mutants only tested by ligation turnover (no binding read-out).; settings: protein: recombinant; tags: 6xHis-SUMO, removed with Ulp1; nicked duplex, 18 bp, blunt ends; nick between strand 2 (11 nt) and strand 3 (7 nt)
[2] = molecular target: T1, DNA ligase IV catalytic domain …; experiment: X-ray crystallography; DNA-adenylate, closed conformation, no metal bound; Crystals: protein pre-incubated with 4 mM MgCl2, 1 mM ATP, 1 h on ice, DNA added at 2:1 molar ratio, 1 h on ice; HEPES pH 7.5 (77-79 mM), ~7.8% isopropanol, ~15.5% PEG4000, ~13.6% glycerol, +/- 10 mM MgCl2, room temperature. Mutants only tested by ligation turnover (no binding read-out).; settings: protein: recombinant; tags: 6xHis-SUMO, removed with Ulp1; nicked duplex, 18 bp, blunt ends; nick between strand 2 (11 nt) and strand 3 (7 nt)

Binder	binding result [1]	binding result [2]
B1	binds	
B2		binds
